Results taken from the nanobody polyreactivity screen of Harvey et al. (2022).

assay: yeast display, Sf9 membrane polyspecificity reagent, FACS + sequencing; frameworks hold sequencing errors
Outline: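 Galactose induction of a Saccharomyces cerevisiae BJ5465 synthetic nanobody display library ran 36–48 hours. The cells were then stained for 1 hour at 4 °C with 10% biotinylated, detergent-solubilized Sf9 membrane reagent, pulled down on streptavidin microbeads and FACS-sorted into low and high (top ~1%) gates on expression and reagent-binding fluorescence. Labels for polyreactivity follow the gate of origin.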

Sequence	polyreactivity (PSR sort gate)
QVQLVESGGGLVQAGGSRRLSSAASGIILDHNAMGWYRQAPGKERELVAAISSGTRTNYADSVKGRFTISRDNAKNTVYLQMNSLKPEDTAVYYCAATIYRRYPSKSSITSYWGQGTQVTVSS	high polyreactivity
QVQLVESAGGLVQAGGSLRLSSGASGSTFNTYAMGWYRQAPGKERELVAAITYNGGSTYYADSVKGRFTISRDNAKNTVYLQMNSLKPEDTAVYYCAAPRSRSRTSRFEYWGQGTQVTVSS	high polyreactivity
QVQLVESGGGLVQAGGSLRLSCAASGSIFTYYAMGWYRQAPGKERELVDAITWDDDGTYYADSVKGRFTISRDNAKNTVYLQMNSLKPEDTAVYYCAADDGDPYDYWGQGSQVTVSS	low polyreactivity
QVQLVESGGGLVQAGGSLRLSCAASGSIFSPYAMGWYRQAPGKERELVAGISKSAGTTFYADSVKGRFTISRDNAKNTVYLQMNSLKPEDTAVYYCAADYYYPAWYLSDYWGQGTQVTVSS	low polyreactivity
QVQLVESGGGLVQAGGSLRLSCAASGSIRGYAMGWYRQAPGKERELVAAISWRGGSTYYADSVKGRFTISRDNAKNTVYLQMNSLKPEDTAVYYCAAADGIIESDYWGQGTQVTVSS	low polyreactivity
QVQMQESRGGLVQAGGSLRLSCAASGTITTLPAMGWNRQAPGKEREFVAGIDTGAITNYADSVKGRFTISRDNAKNTVYLQKNSLKPEVTAVYYCAVFPAAYDYYERYYTYWGQGTQVTVMS	low polyreactivity
QVHLVESGGGLVQAGGSLRLSCAASGYTFKRNAMGWYRQAPGKERELVAAINIRGSSTYYADSVKGRFTISRDNAKNTVYLQMNSLKPEDTAVYYCNAVPRYGYYWGQGTQVTVSS	high polyreactivity
QDQLVESGGGLVQAGGSLRLSCAASGSIFNPYAMGWYRQAPGKERELVAAITSGGYTYADSVKGRFTISRDNAKNTVYLQMNSLKPEDTAVYYCAADRSYVYAGADMYYWGQGTQVTVSS	low polyreactivity
QVQLVESGGGLVQAGGSLRLSCAASGFTFSLYAMGWYRQAPGKERELVASIDSDGVSTYYADSVKGRFTISRDNAKNTVYLQMNSLKPEDTAVYYCAADFWWGYISGPVRGRGYYWGQGTQVTVSS	low polyreactivity
QVQLVESGGGLVQAAGSLRLSCAASGITLYWYAMGWSRQAPGKERELVATISRRGGTTYYADSVKGRFTISRDNAKNTVYLQMNSLKPEDTAVYYCAKAPDTQTSWSRQEGNYWGQGTQVTVSS	low polyreactivity
QVQLVESGGGIVQAGGSLRLSCAASGSTFFSNTMGWYRQAPGKERELVAAITSRGGRTYYADSVKGRFTISRDNAKNTVYLQMNSLKPEDSAVYYCADRFVLHGVYLKFYWGQGTQVTVSS	high polyreactivity
QVQLVESGGGLVQAGGSLRISCAASGFTFPYYAMGWYRQAPGKERELVAAISYNGGSTYYADSVKGRFTISRDNAKNTVYLQMNSLKPEDTAVYYCNAVYYDSGVVGYYYWGQGTQVTVSS	high polyreactivity
QVQLVESGGGLVQAGGSLRLSCAASGLTFYYYAMGWYRQAPGKERELVAAISATGGRTDYADSVKGRFTISRDNAKNTVYLQMNSLKPADPAVYYCAADTPYLRRRRGMDYWGQGTQVTVSS	high polyreactivity
QVQLVESGGGLVQAGGSLRLSCAASGSTFTINVMGWYRQAPGKERELVAAINCGGRTNYADSVKGRFTISRDNAKNTVYLQMNSLKPEDTAVYNCAADGRSNVRQMDYWGQGTQVTVSS	low polyreactivity
QVHLVESGGGLVQAGGSLRLSCAASGSIFHKNAMGWYRQAPGKERELVAAITSGGTTYYADSVKGRFTISRDNAKNTVYLLMNSLKPEDTAVYYCNAAKFLYRHGFLSAGDMYYWGQGTQVTVSS	high polyreactivity
QVQLVESGGGLVQAGGSLRLSCAASGRILGAYAMGWYRQAPGKERELVASISSGGRTYYADSVKGRFTISRDNAKNTVYLQMNSLKPEDTAVYYCNAKVRRRKYDYWGQGTQVTVSS	high polyreactivity
QVQLVESGGGLVQAGGSLRLICAASGRIFYINAMGWYRQAPGKERELVASITGSGGRTYYADSVKGRFTISRDNAKNTVYLQMNSLKPEDTAVYYCNADLYVGYLYYLYDYWGQGTQVTVSS	low polyreactivity
QVQLVESGGGLVQAGGSLRLSCAASGRTFHVYAMGWYRQAPGKEREFVAFISRRGGSTYYADSVKGRFTISRDNAKNTVYLQMNSLKPEDTAVYYCKARYVTSRSAYQRGGDYWGQGTQVTVSS	high polyreactivity
QVQLVESGGGLVQAGGSLRLSCAASGSIFARNAMGWYRQAPGKERELVASITWSGASTYYADSVKGRFTISRDNAKNTVYVQMNSLKPEDTAVYYCAATDQKLSLDYSSYEYWGQGTQVTVSS	low polyreactivity
QVQLVESGGGLVQAGGSLRLSCAASGRTFPGYAMGWYREAPGKERELVAAISSSGGSTYYADSVKGRFTISRDNAKNTVYFQMNSLKPEVTAVYSCAVPYWYGRGHCYWGQGTQVTVSS	low polyreactivity
QVHLVESGGGLVQAGGSLRLSCAASGRIFPAYVMGWYRQAPGKERELVAGITSASSTYYADSVKGRFTISRDNAKNTVYLQMNSLKPEDTAVYYCAAVGYSVRQRYDYWGQGTQVTVSS	high polyreactivity

Sequence	polyreactivity (PSR sort gate)
QVQLVESGGGLVQAGGSLRLSCAASGLTLETNAMGWYRQAPGKERELVAGITYSGGTTYYADSVKGRFTISRDNAKNTVYLQMNSLKPEDTAVYYCNAQERRVRDYDYWGQGTEVTVSS	low polyreactivity
QVQLVESGGGLVQAGGSLRLSCAASGLTFGSYAMGWYRQAPGKERELVAAISSRGGTTYYADSVKGRFTISRDNAKNTVYLQMNSLKPEDTAVYYCAARSRRYSYDNLGHWGQGTQVTVSS	high polyreactivity
QVQLVESGGGLVQAAGSLRISCAASGLIFNYYAMGWYRQAPGKERELVAAISKDGGSTYYADSVKGRFTISRDNAKNTVYLQMNSLKPEDTADFYCAARTFRISRMDYRGQGTQVTVSS	high polyreactivity
QVQLVESGGGVVQAGGSLRLSCAASGFIFGYYATGWYRQAPGKERELVDAFTRSGGSTRYADSVKGRFTISRDNAKNTVYLHMNSLKPEDSAVYYCNAYAPRQLYGYDYWGQGTQVTVSS	high polyreactivity
QVQLVESGGGLVQAGGSLRLSCAASGSTFQVYGMGWYRQAPGKERELGAAISRSGGRTYYADSVKGRFTISRDNAKNTVYLQMNSLKPEDTAVYYCNAPISYYDEYYYWGQGTQVTVSS	high polyreactivity
QVQLVESGGGLVQAGGSLRLSCAASGSIFSSNVMGWYRQAPWKERELVAAITVRGSRTYYADSVKGRFTISRDNAKNTVYLQLNSLKPEDTAVYYCNAVARVLGSDRRLQYYYWGQGTQVTVSS	high polyreactivity
QVQLVESGGGLFQAGGSLRLICAASGLIINGNAMGWYRQAPGKERELVADITGSSVRTYYADSVKGRFTISRDNAKNTVYLQMNSLKPEDTAVYYCAKDPDKVDYVDMDYWGQGTQVTVSS	low polyreactivity
QDQLVESGGGLVQAGGSLRLSCAPSGSIFYRNAMGWYRQAPGKERELVAAIRYSGDNTYYADSVKGRFTISRDNSKNTVYLQMNSLKPEDTAVYYCAADFPDYEYWGQGTQVTVSS	high polyreactivity
QVQLVESGGGFVQAGGSLRLSCAASGFIFNRNAMGWYRQAPGKERELVAAISRSGGRTYYADSVKGRFTISRDTAKNTDYFQMNSLKPEDTAVYSCATEGYDGEFDYWGQGTQVTVSS	high polyreactivity
QDHLVESGGGLVQAGGSLRLSCAASGSPFPSYAMGWYRQAPGKERELVAAINSGGGTTYADSVQGRFTISRDKAKNTVYLQMNSLKPEDTAVYYCARGPLSWHSYVEAEYGYWGQGTQVTVSW	low polyreactivity
QVQLVESGGGLVQAGGSLRLSCAASGSTFYENAMVWSRQAPGKDRELVAAISRSTGRTYYADSVKGRFTISRDNAKNTVYLQMNSLKPEDTAVYYCAARVYGRMYFWGQGTQVTVSS	high polyreactivity
QVQLVESGGGLVQAGGSLRLSCAASGSIYESYAMGWYRQAPGKERELVADITYDGGITYYADSVKGRFTISRDNAKNTVYLQMNSLKPEDTAVYYCATEYRYWLSDYSTYFPYDYWGQGSQVTVSS	low polyreactivity
QVELVESGGGLVQAGGSLRLSCAASGFIFEKYTMGWYRQATGKETELVADITWNGGSTYYADSVKGRFTISRDNAKNTVYLQMNSLKPEDNAVYYCAARVGWNQRRYDYWGQGTQVTVSS	low polyreactivity
QVQLVESGGGLVQAGGSLRLSCAASGFIFKQNARGWYRQAPGKERELVAAISWTGGSTYYADSVQGRFTISRDNAKNTVYLQMNSLKPEDTAVFYCAARKYKSTGDRRGTMDYWGQGTQVTVSS	high polyreactivity
QVQLEESGGGLVQAGGSLRLSCAASGFTFVYYAMGRYRQATGKERELVAAISWRDGDTYYADSVKGRFTISRDNAKNTVYVQMNSLKPEDTAVYYCAADYSYFKDDDWGQGTQVTVSS	low polyreactivity
QVQLVESGGGLVQAGGSLRLSCAASVIIFRQYAMGWSRQAPGKERELVAAISGSGGTTYYADSVKGRFTISRDNAKNTVYLQMNSLKPEDTAVYYCAADSSSRGRLDYWGQGTQVTVSS	high polyreactivity
QVQLVESGGGLVQAGGSLRLSCAASGRIFYRYAMGWYRQAPGKERELVATITNGGSTNYADSVKGRFTISRDNAKNTVYLQMNSLKPEDTAVYYCAARLPGYYGIGDYWGQGTQVTVSS	high polyreactivity
QVQIEESGGGLVQEGGSLRISCAASGRIFVYYAMGWNRQAPGKDWELVAAISSGGNTYADSVKGRFTISRDNAKITVYLQMYSLKPDDTAVYYCNASPVSSHVHPKRGYEYWGQGTQVNVSS	low polyreactivity
QVQLVESGGRLVQAGGSLRLSCAASGSTFTYNAMGWYRQAPGKESELVASISSGTTTYYADSVKGRFTISRDNAKNTVYVQMNSLKPEDTAVYYCAFDSWSRVQGWLAHNYDYWGQGTQVTVSS	low polyreactivity
QVQLVESGGGLVQAGGSLRLSCAASGSIFLYYTMGWYRQEPGKERELVAAITWSGASTYYADSVKGRFTISRDNAKNTVYLQMNSLKPEDTAVYYCATRYRYRYWGQGTQVTVSS	high polyreactivity
